T1: human GIP receptor (human, UniProt P48546 22-466)
T1 sequence (looked up): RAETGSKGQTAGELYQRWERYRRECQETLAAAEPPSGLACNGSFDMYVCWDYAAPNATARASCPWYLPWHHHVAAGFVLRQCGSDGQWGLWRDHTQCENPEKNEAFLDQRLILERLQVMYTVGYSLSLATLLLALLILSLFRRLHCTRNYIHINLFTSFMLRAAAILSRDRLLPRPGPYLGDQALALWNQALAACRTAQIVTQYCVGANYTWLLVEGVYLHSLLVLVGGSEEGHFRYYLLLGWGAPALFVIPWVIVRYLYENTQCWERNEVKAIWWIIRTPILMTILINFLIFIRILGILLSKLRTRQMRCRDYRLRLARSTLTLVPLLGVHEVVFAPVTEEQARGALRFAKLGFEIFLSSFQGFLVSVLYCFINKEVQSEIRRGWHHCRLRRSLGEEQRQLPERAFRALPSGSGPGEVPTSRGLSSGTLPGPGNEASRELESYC


Experiments:
Test in all cases: cell-based or functional assay
human glucagon receptor = human glucagon receptor (human, UniProt P47871 26-477)
Chain of human glucagon receptor (P47871 26-477): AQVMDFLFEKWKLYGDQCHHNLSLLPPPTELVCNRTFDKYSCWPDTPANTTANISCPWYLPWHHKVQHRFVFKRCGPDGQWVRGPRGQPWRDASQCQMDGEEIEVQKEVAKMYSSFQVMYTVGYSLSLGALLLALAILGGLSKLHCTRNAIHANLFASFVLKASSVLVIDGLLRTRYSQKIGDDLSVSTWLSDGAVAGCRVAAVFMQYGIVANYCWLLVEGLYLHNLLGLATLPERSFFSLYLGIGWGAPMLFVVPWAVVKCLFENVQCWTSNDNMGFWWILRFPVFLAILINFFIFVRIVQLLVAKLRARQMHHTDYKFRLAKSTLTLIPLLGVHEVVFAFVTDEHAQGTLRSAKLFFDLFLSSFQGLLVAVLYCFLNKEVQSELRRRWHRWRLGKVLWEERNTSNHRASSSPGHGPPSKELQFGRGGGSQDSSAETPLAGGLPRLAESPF

human GLP-1 receptor = human GLP-1 receptor (human, UniProt P43220 24-463)
human GIP receptor = target: T1, human GIP receptor

Row | Binder | cAMP EC50 (1.0% HSA) (human glucagon receptor) | cAMP EC50 (1.0% HSA) (human GLP-1 receptor) | cAMP EC50 (1.0% HSA) (human GIP receptor) | cAMP Emax (1.0% HSA) (human GIP receptor) | cAMP Emax (1.0% HSA) (human GLP-1 receptor)
1 | YXEGTXTSDXXIXLDXQAQXXFIKXLIKGGPSSGAPPPS (Y-Aib-EGT-αMeF(2F)-TSD-4Pal-Aib-I-αMeL-LD-Orn-QAQ-Aib-Orn-FIK(PEG3-(γ-Glu)-(10-(4-carboxyphenoxy)decanoyl))-αMeY-LIK(PEG3-(γ-Glu)-(10-(4-carboxyphenoxy)decanoyl))GGPSSGAPPPS-NH2) [Example 462] | > 9950 nM | 3.34 nM | 0.317 nM |  | 
2 | YXEGTXTSDXXIXLDXQAQXXFIKXLIKGGPSSGAPPPS (Y-Aib-EGT-αMeF(2F)-TSD-4Pal-Aib-I-αMeL-LD-Orn-QAQ-Aib-Orn-FIK((2-[2-(2-Amino-ethoxy)-ethoxy]-acetyl)-Trx-(γ-Glu)-(10-(4-carboxyphenoxy)decanoyl))-αMeY-LIK(((2-[2-(2-Amino-ethoxy)-ethoxy]-acetyl)-Trx-(γ-Glu)-(10-(4-carboxyphenoxy)decanoyl))GGPSSGAPPPS-NH2)) [Example 473] | > 9950 nM | 7.07 nM | 0.979 nM |  | 
3 | YXEGTXTSDXXIXLDXQAQXXFIKXLIKGGPSSGAPPPS (not fully specified; Y-Aib-EGT-αMeF(2F)-TSD-4Pal-Aib-I-αMeL-LD-Orn-QAQ-Aib-Orn-FIK(Ahx-(2-[2-(2-Amino-ethoxy)-ethoxy]-acetyl)-(γ-Glu)-CO-(CH2)12-CO2)-αMeY-LIK(Ahx-(2-[2-(2-Amino-ethoxy)-ethoxy]-acetyl)-(γ-Glu)-CO-(CH2)12-CO2)GGPSSGAPPPS-NH2) [Example 451] | > 9950 nM | 7.23 nM | 0.518 nM |  | 
4 | YXEGTXTSDXXIXLDXQAQXXFIKXLIKGGPSSGAPPPS (Y-Aib-EGT-αMeF(2F)-TSD-4Pal-Aib-I-αMeL-LD-Orn-QAQ-Aib-Orn-FIK((2-[2-(2-Amino-ethoxy)-ethoxy]-acetyl)-Trx-(γ-Glu)-CO-(CH2)12-CO2H)-αMeY-LIK(((2-[2-(2-Amino-ethoxy)-ethoxy]-acetyl)-Trx-(γ-Glu)-CO-(CH2)12-CO2H)GGPSSGAPPPS-NH2)) [Example 472] | > 9950 nM | 7.41 nM | 0.663 nM | 76.3% | 
5 | YXEGTXTSDXXIXLDXQAQXXFIKXLIKGGPSSGAPPPS (not fully specified; Y-Aib-EGT-αMeF(2F)-TSD-4Pal-Aib-I-αMeL-LD-Orn-QAQ-Aib-Orn-FIK((2-[2-(2-Amino-ethoxy)-ethoxy]-acetyl)-Aoc-(γ-Glu)-CO-(CH2)12-CO2)-αMeY-LIK((2-[2-(2-Amino-ethoxy)-ethoxy]-acetyl)-Aoc-(γ-Glu)-CO-(CH2)12-CO2)GGPSSGAPPPS-NH2) [Example 450] | > 9950 nM | 32.3 nM | 2.44 nM |  | 
6 | YXEGTXTSDXXIXLDXQAQXXFIKXLIKGGPSSGAPPPS (Y-Aib-EGT-αMeF(2F)-TSD-4Pal-Aib-I-αMeL-LD-Orn-QAQ-Aib-Orn-FIK((2-[2-(2-Amino-ethoxy)-ethoxy]-acetyl)-Ahx-(γ-Glu)-(10-(4-carboxyphenoxy)decanoyl))-αMeY-LIK((2-[2-(2-Amino-ethoxy)-ethoxy]-acetyl)-Ahx-(γ-Glu)-(10-(4-carboxyphenoxy)decanoyl))GGPSSGAPPPS-NH2) [Example 453] | > 9950 nM | 5.47 nM | 0.451 nM |  | 
7 | YXEGTXTSDYXIXLDXIAQXXFIKXLIKGGPSSGAPPPS (Y-Aib-EGT-αMeF(2F)-TSDY-Aib-I-αMeL-LD-Orn-IAQ-Aib-Orn-FIK((2-[2-(2-Amino-ethoxy)-ethoxy]-acetyl)3-(γ-Glu)-CO-(CH2)12-CO2H)-αMeY-LIK((2-[2-(2-Amino-ethoxy)-ethoxy]-acetyl)3-(γ-Glu)-CO-(CH2)12-CO2H)GGPSSGAPPPS-NH2) [Example 478] | > 9950 nM | 6.16 nM | 0.517 nM |  | 108%
8 | YXEGTXTSDXXIXLDXQAQXXFIKXLIKGGPSSGAPPPS (Y-Aib-EGT-αMeF(2F)-TSD-4Pal-Aib-I-αMeL-LD-Orn-QAQ-Aib-Orn-FIK(PEG4-(γ-Glu)-(10-(4-carboxyphenoxy)decanoyl))-αMeY-LIK(PEG4-(γ-Glu)-(10-(4-carboxyphenoxy)decanoyl))GGPSSGAPPPS-NH2) [Example 461] | > 10100 nM | 2.76 nM | 0.247 nM |  | 
